This is an account of results in the DeepSol protein solubility set.

The data set in a line: soluble on expression in E. coli; label from the status in PepcDB or PDB records.
For “RPQISIRVDVPKEEKGIEAMICLDISNSMLCEDVKPNRLSFAKQVLGKLFDGLQNDKVGLVVFAGNAYTQIPITTDLSAAKQFLADISPNMVTAQGTAIGAAIELASKSFSDNKEIGKTIIVLTDGENHEGNAIEAAQQAHEAGIRVNVIGLGTALGAPIPIEEGYLKDETGNPVVTKFDEKMCRDIASAGEGTFFSGQSASALVRAIESQLDKLPKAVLSSSSSSGYREV”, the “soluble on expression in E. coli” value is “not soluble”.
With “RQACYQEIIDTILSKKPHAFESLVVLLLQKMGYGGEIKQSGLVTPYSNDGGIDGIIKEDVLGFGRIHIQAKRYALENSVQRQEIQSFVGALAVAQSNKGVFITTSSFSRGAIQYAVGLNGSTTLILIDGQKLAEYIYEYGVGLQVEHTVEIKKLDSEFWDSMENEAGVPDL” the entry was “not soluble”; with “RQANELPGAPSQEEAVIAFGKFKLNLGTREMFREDEPMPLTSGEFAVLKALVSHPREPLSRDKLMNLARGREYSAMERSIDVQISRLRRMVEEDPAHPRYIQTVWGLGYVFVPDGSKA”, “soluble”; with “RQFQILLQQINMTDDTFMTYFEHGEIKKLTIHKASKSWHFHFQFKSLLPFQIYDTLTTRLTQSFAHIAKVTSSIEVQDAEVSESIVQDYWSRCIEELQGISPPIISLLNQQKPKLKGNKLIVKTKTDTEAAALKNKYSSMIQA”, “not soluble”.
With “RRAYGKNSKWVLINYNTGQPYEQTKVTPDGLIDYDAVLAANAAASNGSEAIFALGSNSHKWFGLLSSFKKKLNSSLTLTAGYDGRYYRGDHYDKITDLLGGSYYIEDPKTKLAYHAEGQQLKVGDIVNRDYTGEIMWHGLFAQMEHSSEWIDAFVSGSINYELYRNHNYGGSKSTGYLPGVSPWKSFLPWSGKAGLSYKFAQGHNVFANGGFFTRAPLFGNIYAAGAIIPNDKANMEKVLTGEVGYGFTNHKNFEFNINGYYTKWMDRVTSKRIGNEYVYLNGVDAVHCGVEAEVSYRPIRQIDLRGMFSLGDWTWQNNVSYTSYDEAGNETGQDITYIKGLHVGDAAQMTAAVSADIELFKGFHVIGKYNFLGKNYAGFNPATRNAQQYEADGKEIVESWKLPDVGLFDLSASYNFKLGSLSTTFYFNMDNVADKRYVSDADDNIIGKKHDEASALVWYGFGRTWSTGIRVNF”, the “soluble on expression in E. coli” value is listed as “not soluble”.
With “RSFDTKQEHGISPKPTYSRIKANYFSFGYFVGRVLPYQLFDLSRIPAFKQPAPSKIGQGSVQNIVLIMGESESAAHLKLFGYGRETSPFLTRLSQADFKPIVKQS”, the “soluble on expression in E. coli” value is reported as “not soluble”.
Consider “RSLKNEELYHQSYDCVCVMFASIPDFKEFYTESDVNKEGLECLRLLNEIIADFDDLLSKPKFSGVEKIKTIGSTYMAATGLSAIPSQEHAQEPERQYMHIGTMVEFAYALVGKLDAINKHSFNDFKLRVGINHGPVIAGVIGAQKPQYDIWGNTVNVASRMDSTGVLDKIQVTEETSLILQTLGYTCTCRGIINVKGKGDLKTYFVNTEMSR”, for which the “soluble on expression in E. coli” value is “soluble”.
In the case of “RSTDTFNYATYHTLEEIYDFLDLLVAENPHLVSKIQIGNTYEGRPIYVLKFSTGGSKRPAIWIDTGIHSREWVTQASGVWFAKKITQDYGQDAAFTAILDTLDIFLEIVTNPDGFAFTHSTNRMWRKTRSHTAGSLCIGVDPNRNWDAGFGLSGASSNPCSETYHGKFANSEVEVKSIVDFVKDHGNIKAFISIHSYSQLLMYPYGYKTEPVPDQDELDQLSKAAVTALASLYGTKFNYGSIIKAIYQASGSTIDWTYSQGIKYSFTFELRDTGRYGFLLPASQIIPTAKETWLALLTIMEHTLNHP”, the “soluble on expression in E. coli” value is reported as “soluble”.
As to “RTDTIMVLNVGNKDKKIKMVSFMRDTLVNIKGVSADNYSYDNKLNSAFNIGEQDNNQGAELMRQTLKRNFDIDIKYYVMVDFQTFAEAIDTLFPNGVEINAKFATVGGEAVDSVEVPDDLNMKDGVVPNQTISVGKQKMDGRTLLNYARFRKDDEGDFGRTKRQQQVMSAIMSQIKD”, the “soluble on expression in E. coli” value is listed as “not soluble”.
As for “RTYGDGTKPQTDRVVGGLVVEYDITENIMVSAHYDRTKDEGSVDSGAYIVDGKPVRGDKYIWDAQWSKIDNDVENYGIDINAQVTDNVNVKAGYNRQDFKRFDVESYPKFDNYDKDGVIRHKGNERTDNWVFDTAYLDVTTNFSLLGTENTFLVGANYLDYKYDRFMASHAGEDVAAGTTVTRPGTVRSKKYPRREHDTWGIYAQNMMTINDYWQVLAGARYDEKREDSLTENQVSPKLGVIFHPTSNGSIYVQYSESFMPQGEVSNGSRIYINDGEKLDAERGISYEIGTKWELFDQRLFVSGAVFDITLENISLDVESGKDASNQLLHKKTQGGEQVHKGAELMAQGFVTPELSLTASAMYLDAELKKAERFEGNRPADVPEFSASLWSSYRVQDNTNLNLGLIYEGDRYGDAANTFKKDGYARIDMGVSYKHKYDENLDIIARFNVENLFDTDYLAGGGSTNGNQEGASGVVVGEGRNYMATIQFKY”, the entry is “not soluble”.
As for “RVAYIQIIEPDNLIKQGDLRSIRVKSIPSARGIISDRNGEPLAVSVPVEAVWADPATIFKENALSQKQNWYALADVLGVDRQGLIDKIKRNEKRRFIYLQRQVSPAMANYIRELKLPGIGLKSESRRYYPAGEVSAHLVGVTGIDGHGLEGVERSYDEWLTGEEGKKTIRKDRYGRVVENIAWQDKQEGKSLQLTIDQRLQAIAYRAIKQAVADHRATSGSVVMLDVKTGAVLAMVNAPSYNPNNRTDWQSYKMRNRVITDSMEPGSTIKPFVILAALENGVADKDTIVDTGNGVLRLGGSRVRDVSWVGKASLSMILKKSSNIGVTKLAMQMPVEALLGLYSSVGFGELSGLNLVGEVTGIFPTRTRWSPIERATIA”, the entry is “not soluble”.
For the sequence “RVEVGGSGDAAAVLGLGAVLQGQGQGTSPSPSGLRPQPEAALPPLERLPKPVLVQVASRCRRNDSRSPTHRKITRGAVGLFHPQLYLSGGNCIECGNEMMSRGKFERLAGTATAKWHVSIKVLPSGVTLGKWLQQHGLPILQGEPRQWRRPRCPCATSCAARCRRASNRRK”, the “soluble on expression in E. coli” value is reported as “not soluble”.
On to “RYIEKALKRPGNILIGTLPVGLDFPTRIVAEIVDAPSLTIEEIMRKAKYYLREGADIIDIGMESGKTNVEFLESVLPEIKEKINAPLSLDTLNPKEIEAGEKEVDLILSVDFGTVEEILPSKPVVLIPTNMKEGKFIEDPIGRAKALEKLKEKALNLGYKGLILDPILEHYPNFSRSLVAFYLYRMRNPQDILLAGVGNITEMMDADSVGLNALLASIAGELKISLLLTTEVSPKATGSVRELKRGIDMVLLGGVKDVGINLLILKEKRRKEQKIEFAKTIIRAKKKPVKLEEVYFKIYVVGTELAVTAYKGTNPVMTIIGKEPNEIIDTILEHFSISPRHAFYLGRELEKAYTGLKIRRSYIQEEELFGDFYFEK”, for which the “soluble on expression in E. coli” value is on record as “not soluble”.
With “RYWQLEVAPRRRADPPEALLELLDRSVTARMQGGPVGSMLSGGLDSGTVSMLASRRSEGPLPVISMKFDDHPEIDESEWIAKIHAAGRFRPVWIDGRDAHGGDVAELLAEQGGPFFAPNLATSRWLYRRAAEAGVEILLDGHGGDEVISFGVARLTELASEAQWRTLWQSTAAVSDLFGGSRREFFLNSMAQGAQSRWLRAMARRLNVGAKRDPRAWRQALHPALVARTGLVQRVQEAAGARKRGATDDIRQHVATLTAPRYPTTLEVLDRAATLCGIEPRYPFLERRLIEHCVAQPAAAKFHDGMTRALLRDAVRGLLPDEVRLRTSKTNFTPNVRARMLTSWGDNLNRIAGCNPGRIGDYVDLAVIREGIQRLRAGEPDQPALLQTMRAVVLDEWLR”, the “soluble on expression in E. coli” value is “not soluble”.
“SAAAADERSPEDGEDEEEEEQLVLVELSGIIDSDFLSKCENKCKVLGIDTERPILQVDSCVFAGEYEDTLGTCVIFEENVEHADTEGNNKTVLKYKCHTMKKLSMTRTLLTEKKEGEENIGGVEWLQIKDNDFSYRPNMICNFLHENEDEEVVASAPDKSLELEEEEIQMNDSSNLSCEQEKPMHLEIEDSGPLIDIPSETEGSVFMETQMLP”: the “soluble on expression in E. coli” value was “not soluble”.
For the sequence “SAARRALKAVLVDLNGTLHIEDAAVPGAQEALKRLRATSVMVRFVTNTTKETKKDLLERLKKLEFEISEDEIFTSLTAARNLIEQKQVRPMLLLDDRALPEFTGVQTQDPNAVVIGLAPEHFHYQLLNQAFRLLLDGAPLIAIHKARYYKRKDGLALGPGPFVTALEYATDTKAMVVGKPEKTFFLEALRDADCAPEEAVMIGDDCRDDVDGAQNIGMLGILVKTGKYKAADEEKINPPPYLTCESFPHAVDHILQHLL”, the “soluble on expression in E. coli” value is given as “soluble”.
Consider “SADCILVNSQFTAAVFKETFKSLSHIDPDVLYPSLNVTSFDSVVPEKLDDLVPKGKKFLLLSINRYERKKNLTLALEALVQLRGRLTSQDWERVHLIVAGGYDERVLENVEHYQELKKMVQQSDLGQYVTFLRSFSDKQKISLLHSCTCVLYTPSNEHFGIVPLEAMYMQCPVIAVNSGGPLESIDHSVTGFLCEPDPVHFSEAIEKFIREPSLKATMGLAGRARVKEKFSPEAFTEQLYRYVTKLLV”, for which the “soluble on expression in E. coli” value is given as “soluble”.
Turning to “SAPALLTAAQRTMLAQVGACNSHLTSDENMAINELRLHKPRLPKDTWFFTDPNKDPDDVVTYTLGKQLQAEGFVHITDVVATLGDAEVRSQRAEMAKGVFNKLGLHDVHVSRGRDYAMNSLQSKEHAKFLLEGHALRAGPGEIHRDSLQDMSRRLARAPHGVGIVVIAGMSDINALITTCPDMVRERVDDITIMGGVEPLKDADGFVQPDARAYNNATDMDAARSLYRKAQELGIPLRIVTKEAAYKTAVSPSFYEGIAGSGHPVGHYLRDVQKSALKGLWEGIQAGLLPGLDDSWFFRTFMPNAQIEAAQLDKNKESSFEDIWPKVTKLNLYDPLTLLASVPGAAKLLFKPKAIHTEGFGVVEQVGPDDVTHPEKAKLLMSALAKSALVQSTVAPD”, the “soluble on expression in E. coli” value is “soluble”.
Regarding “SAPEENAGTELLLQSFERRFLAARTLRSFPWQSLEAKLRDSSDSELLRDILHKTVKHPVCVKHPPSVKYARCFLSELIKKHEAVHTEPLDELYEALAETLMAKESTQGHRSYLLPSGGSVTLSESTAIISYGTTGLVTWDAALYLAEWAIENPAVFTNRTVLELGSGAGLTGLAICKMCRPRAYIFSDCHSRVLEQLRGNVLLNGLSLEADITAKLDSPRVTVAQLDWDVATVHQLSAFQPDVVIAADVLYCPEAIMSLVGVLRRLAACREDQRAPEVYVAFTVRNPETCQLFTTELGRAGIRWEVEPRHEQKLFPYEEHLEMAMLNLTL”, the “soluble on expression in E. coli” value is “soluble”.
“SAPVGVEKKLLLGPNGPAVAAAGDLTSEEEEGQSLWSSILSEVSTRARSKLPSGKNILVFGEDGSGKTTLMTKLQGAEHGKKGRGLEYLYLSVHDEDRDDHTRCNVWILDGDLYHKGLLKFAVSAESLPETLVIFVADMSRPWTVMESLQKWASVLREHIDKMKIPPEKMRELERKFVKDFQDYMEPEEGCQGSPQRRGPLTSGSDEENVALPLGDNVLTHNLGIPVLVVCTKCDAVSVLEKEHDYRDEHLDFIQSHLRRFCLQYGAALIYTSVKEEKNLDLLYKYIVHKTYGFHFTTPALVVEKDAVFIPAGWDNEKKIAILHENFTTVKPEDAYEDFIVKPPVRKLVHDKELAAEDEQVFLMKQQSLLAKQPATPTRASESPARGPSGSPRTQGRGGPASVPSSSPGTSVKKPDPNIKNNAASEGVLASFFNSLLSKKTGSPGSPGAGGVQSTAKNSGQKTVLSNVQEELDRMTRKPDSMVTNSSTENEA”: the “soluble on expression in E. coli” value is reported as “soluble”.
As for “SASLDRVKVLVLGDSGVGKSSLVHLLCQNQVLGNPSWTVGCSVDVRVHDYREGTPEEKAFYIELWDVGGSVGSASSVKSTRAVFYNSVNGIILVHDLTNKKSSQNLYRWSLEALSKDSSPTGIIVSNGDYDREQFAENAVPLLLIGTKFDQIPENKRNDVLTRTAFLSEDFNAEEINLDCTNPRYLAAGSSNAVKLSRFFDKVIEKRYFTRDPSQMQSFTDRRRFNFKSLHSD”, the entry is “soluble”.
